Assay results from the RNAGym collection of RNA variant scans (doi:10.1073/pnas.2313332121).
Fewer inactive variants are shown than the library holds.

B1: TPR 5TU (parent)
chain: GGAUCUUCUCGAUCUAACAAAAAAGACAAAUCUGCCACAAAGCUUGAGAGCAUCUUCGGAUGCAGAGGCGGCAGCCUUCGGUGGCGCGAUAGCGCCAACGUUCUCAACUAUGACACGCAAAACGCGUGCUCCGUUGAAUGGAGUUUAUCAUG

Variants of: B1
Assay: polymerase ribozyme fitness, log enrichment relative to wild type (log ratio); higher = more active; in vitro selection for triplet polymerase activity
Method in brief: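 Both subunits of a heterodimeric triplet polymerase ribozyme were given their own mutant library, built by PCR and transcribed. Each library was annealed with a biotinylated primer, the partner subunit and triplets, incubated frozen at −7 °C, and its extended constructs gel-excised, captured on streptavidin beads and amplified by RT-PCR, all in one round done in triplicate. Fitness is the logarithm of genotype enrichment relative to wild-type enrichment, with replicates averaged by inverse-variance weighting. That logarithm is base 2, and Illumina-sequenced genotypes needed ≥10 input reads and ≥1 read per output.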

Going from GGAUCUUCUCGAUCUAACAAAAAAGACAAAUCUGCCACAAAGCUUGAGAGGAUCUUCGGAUGCAGAGGCGGCAGCCUUCGGUGGCGCGAUAGCGCCAACGUUCUCGACUAUGACACGCAAAACGCGUGCUCCGUUGAAUGGAGAUUAUCAUG [C51G A106G U144A] to GGAUCUUCUCGAUCUAACAAAAAAGACAAAUCUGCCACAAAGCUUGAGAGGGUCUUCGGAUGCAGAGGCGGCAGCCUUCGGUGGCGCGAUAGCGCCAACGUACUCAACUAUGACACGCAAAACGCGUGCUCCGUUGAAUGGAGUUUAUCAUG [C51G A52G U102A], the “polymerase ribozyme fitness (log ratio)” value rises from -3.29 to -3.01.

GGAUCUUCUCGAUCUAACAAAAAAGACAAAUCUGCCACAAAGCUUGAGAGGAUCUUCGGAUGCAGAGGCGGCAGCCUUCGGUGGCGCGAUGUCGCCAACGCUCUCAACUAUGACACGCAAAACGCGUGCUCCGUUGAAUGGAGUUUAUCAUG [C51G A91G G92U U101C] and GGAUCUUCUCGAUCUAACAAAAAAGACAAAUCUGCCACAAAGCUUGAGAGGAUCUUCGGAUGCAGAGGCGGCAGCCUUGGGUGGCUCGAUAGCGCCAACGUUCUCAACUAUGAUACGCAAAACGCGUGCUCCGAUGAAUGGAGUUUAUCAUG [C51G C79G G86U C114U U134A] cannot be ordered by “polymerase ribozyme fitness (log ratio)” value: ≤ -4.2 for the first, ≤ -4.2 for the second.

GGAUCUUCUCGAUCUAACAAAAAAGACAAAUCUGCCACAAAGCUUGAGAGGACCUUCGGAUGCAGACGCGGCAGCCUUCGGUGGCUCGAUAGCGCCAACGGUCUCAACUAUGACACGCAAAACGCGUGCUCCGUUGAUUGGAGUUUAUCAUG [C51G U53C G67C G86U U101G A138U] and GGAUCUUCUCGAUCUAACAAAAAAGACAAAUCUGCCACAAAGCUUGAGAGGAUCUUCGGAUGCAGAGGCGGCAGCCUUCGGUGGCGAGAUAGCGCCAACGUUCUCAACUAUGACACGCAAAACGCGUGCUCCGUUGAAUGGAGUUUAUCAUG [C51G C87A] cannot be ordered by “polymerase ribozyme fitness (log ratio)” value: ≤ -4.2 for the first, ≤ -4.2 for the second.

Going from GGAUCUUCUCGAUCUAACAAAAAAGACAAAUCUGCCACAAAGCUUGAGAGGAUCUUCGGAUGCCGAGGUGGCAGCCUUCAGUGGCACGAUAGCGCUAACGUUCUCAACUAUGAAACGCAAAACGCGUGCUCCGUUGAAUGGAGUUUAUCAUG [C51G A64C C69U G80A G86A C96U C114A] to GGAUCUUCUCGAUCUAACAAAAAAGACAAAUCUGCCACAAAGCUUGAGAGAAUCUUCGGAUGCAGAGGCGGCAGCCUUCGGUGGCGCGAUAGCGCCAACGUUCUCAACUAUGACACGCAAAACGCGUGCUCCGGUGAAUGGAGAUUAUCAUG [C51A U134G U144A], the “polymerase ribozyme fitness (log ratio)” value rises from ≤ -4.2 to -4.17.

Going from GGAUCUUCUCGAUCUAACAAAAAAGACAAAUCUGCCACAAAGCUUGAGAGGAUCUUCGGAUGCAGAGGCGGCAGCCUUCGGUGGUGCGAUAGCGCCAACGUUCUCAACUAUGACACGCAAAACGCGUGCUCCGUUGAAUGGAGUUUAUCAUG [C51G C85U] to GGAUCUUCUCGAUCUAACAAAAAAGACAAAUCUGCCACAAAGCUUGAGAGGAUCUACGGAUGCAGAGGCGGCAGCCUUCGGUGGCGCGAUAGCGCCUACGUUCUCAACUAUGACACGCAAAAUGCGUGCUCCGUUGAAUGGAGUUUAUCAUG [C51G U56A A97U C123U], the “polymerase ribozyme fitness (log ratio)” value falls from -1.91 to -3.

GGAUCUUCUCGAUCUAACAAAAAAGACAAAUCUGCCACAAAGCUUGAGAGGAUCUUCGGAUGCAGAGGCGGCAGCAUUCGGUGGCGUGAUAGCGCCAACGUUCUCAACUAUGACACGCAAAACGCGUGCUCCGUUGAAUGGAGUUUAUCAUG [C51G C76A C87U] and GGAUCUUCUCGAUCUAACAAAAAAGACAAAUCUGCCACAAAGCUUGAGAGGAUCUUCGGAUGCAGAGGCGGCAGCCUUCUGUGGCGCGAUAGCUCCAACGUUCUCAACUAUGACACGCAAAACGCGUGCUCCGUUGAAUGGAGUUUAUCAUG [C51G G80U G94U] cannot be ordered by “polymerase ribozyme fitness (log ratio)” value: ≤ -4.2 for the first, ≤ -4.2 for the second.

Compared with GGAUCUUCUCGAUCUAACAAAAAAGACAAAUCUGCCACAAAGCUUGAGAGGAUCUUCGGAUGCAGAGGCGGCAGCCUUAGGUGGCGCGAUAGCGCCAACGUUCUCAACUAUGACACGCAAAACGCGUGCUCCGUUGAAUGGAGUUUAUCAUG [C51G C79A], GGAUCUUCUCGAUCUAACAAAAAAGACAAAUCUGCCACAAAGCUUGAGAGGAUCUUCGGAUGCAGAGGCGGCAGCCUUCGGUGGCGCGAUAGCGCCAACGUUCUCAACUAUGACACGCAAAACGUGUGCUCCGUUGAAUGUAGUUUAUCAUG [C51G C125U G141U] is higher in “polymerase ribozyme fitness (log ratio)” value: ≤ -4.2 for the first, -3.54 for the second.

GGAUCUUCUCGAUCUAACAAAAAAGACAAAUCUGCCACAAAGCUUGAGAGAAUCUUCGGAUGCAGAGGCGGCAGCCUUCGGGGGCGCGAUAGCGCUAACGUUCUCAACUAUGACACGCAAAACGCGUGCUCCGUUGAAUGGACUUUAUCAUG [C51A U82G C96U G143C] and GGAUCUUCUCGAUCUAACAAAAAAGACAAAUCUGCCACAAAGCUUGAGAGGAUCUUUGGAUGCAGACGCGGCAGCCUUCGGUGGCGGGAUGGCGCCAACGUUCUCAACUAUGACACGCAAAACGCGUGCUCCGUUGAAUGGAGUUUAUCAUG [C51G C57U G67C C87G A91G] cannot be ordered by “polymerase ribozyme fitness (log ratio)” value: ≤ -4.2 for the first, ≤ -4.2 for the second.

GGAUCUUCUCGAUCUAACAAAAAAGACAAAUCUGCCACAAAGCUUGAGAGGAUCUUCGGAUGCAGAGGCGGCAGCCUUCGGUUGCGCGAUAGCGCCAACGUUCUCAACUCUGACACGCAAAACGCGUGCUCCGUUGAAUCGAGUUUAUCAUG [C51G G83U A110C G140C] and GGAUCUUCUCGAUCUAACAAAAAAGACAAAUCUGCCACAAAGCUUGAGAGGAUCUUCGGAUGCAGAGGCGGCGGCCUUGGGUGGCGGGAUAGCGCCAACGUUCUCAACUAUGACACGCAAAACGCGUGCUCCGUUGAAUCGAGAUUAUCAUG [C51G A73G C79G C87G G140C U144A] cannot be ordered by “polymerase ribozyme fitness (log ratio)” value: ≤ -4.2 for the first, ≤ -4.2 for the second.

In the case of GGAUCUUCUCGAUCUAACAAAAAAGACAAAUCUGCCACAAAGCUUGAGAGGAUCUUCCGAUGCAGAGGCGGCAGCCUUCGGUGGCGCGAUAGCGCCAACGUUCUCAACUAUGACACGCAAAACGCGUGCUCCGUUGAAUGGAGUUUAUCAUG [C51G G58C], the “polymerase ribozyme fitness (log ratio)” value is reported as -1.42.
